Measurements reported in the RNAGym collection of RNA variant scans (doi:10.1073/pnas.2313332121).

B1: TPR t1 (parent)
chain: GACCAAUCUGCCCUCAGAGCUCGAGAACAUCUUCGGAUGCAGAGGAGGCAGGCUUCGGUGGCGCGAUAGCGCCAACGUCCUCAACCUCCAAUGCAUCCCACCACAUGAUGAUGCCUGAAGAGCCUUGGUUUUUUG

Variants of: B1
Assay: polymerase ribozyme fitness, log enrichment relative to wild type (log ratio); higher = more active; in vitro selection for triplet polymerase activity
Procedure, shortened: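 Mutant libraries of both subunits of a heterodimeric triplet polymerase ribozyme were PCR-built, transcribed, and selected once in triplicate, with frozen incubation at −7 °C and capture of gel-excised extended constructs on streptavidin beads before RT-PCR. Illumina sequencing of input and output libraries was filtered to genotypes with ≥10 input reads and ≥1 read per output. Fitness is the logarithm of genotype enrichment over wild-type enrichment, using inverse-variance-weighted replicate averages. The logarithm is base 2.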

| Variant | polymerase ribozyme fitness (log ratio) |
| --- | --- |
| A50C C64U G77A | -0.681 |
| C49U G128C | -2.44 |
| C49A C124A | 1.63 |
| C49A G69A G77A G122A | -4.61 |
| G51C C79A | -4.29 |
| C49A A74G | -0.173 |
| G51C U87A G120A | -3.27 |
| C49G C123U | 0.717 |
| A50U G60U U125G U129C | -3.19 |
| C49U G60A C97G | -5.67 |
| C49U C73U G110A | -1.42 |
| C49G C89G | -2.16 |
| G48U G61U U112C | 1.56 |
| A50G C73U C88U C124A | 1.42 |
| G51C C80G G135U | -1.27 |
| A50C C70U | -2.04 |
| A50C C70G | -3.56 |
| C49A C70G U130C | -3.2 |
| G51A C72G C79U | -3.08 |
| A50C A66C A100U | -3.95 |
| A50C U106A G110A G127C | -3.34 |

| Variant | polymerase ribozyme fitness (log ratio) |
| --- | --- |
| C49A C64U | -0.082 |
| C49A A50G G52U A118U | 0.379 |
| C49A A90C A103U C114A | -7.25 |
| C49G C101A | -1.3 |
| C49G U55C C76U A95C C98U | -2.41 |
| G48U U112C A118U | 0.638 |
| C49U C76U U81A C88A | -3.72 |
| G51A A83C | -3.73 |
| C49U C123G G128C | -1.69 |
| G51C G58A A100C C124U | -4.88 |
| C49A G77C C88A | -1.31 |
| C49U G51U C62U C80A G113A C124A | -3.94 |
| C49A C72U | -1.37 |
| C49A C72A | 0.275 |
| A50U G58C G71C C104A C124A | -3.2 |
| C49A U116G | -2.39 |
| G51A U112A | -1.47 |
| G51U A91G | -5.12 |
| C49A C56A U131C U133A | -0.929 |
| C49A G51U G52U A90G A119U | -2.42 |
| A50U C79G G110A G122C | -6.04 |

| Variant | polymerase ribozyme fitness (log ratio) |
| --- | --- |
| C49A C56U | 0.0901 |
| G51C G63A U78C A111C | -6.17 |
| C49G G69U U125A G128A | -3.1 |
| A50G C62A C99U | -6.11 |
| G48U G93C A121G | 0.759 |
| C49U U106A U126A | -2.78 |
| A50U G51C C73U | -3.52 |
| C49G C53G G69C C72U | -1.21 |
| A50C C62U C94U | -0.553 |
| A50C U81C | 0.175 |
| C49U C53A A111C | -0.429 |
| A50C U87C | -0.237 |
| A50U C76A C82U | -1.67 |
| C49G G69A A119U U133A | -3.06 |
| C49U C72U C115U C123G | -2.4 |
| A50U U112A C124U G128C | -4 |
| G51A A68U C82U C124U | -7.31 |
| C49G G120U C124A G135U | -1.63 |
| G48U U78C U92A A105U A121U | -5.76 |
| A50G G63A | -0.747 |
| A50U C115A | -0.803 |

| Variant | polymerase ribozyme fitness (log ratio) |
| --- | --- |
| C49U A66C C86G C88U U92A C114U | -5.32 |
| C49U C124U U132A | 0.615 |
| A50U G52C A83C | -2.39 |
| G48U C89A U130A | -2.33 |
| C49G G93A U133A | -0.83 |
| A50U C79U | -1.76 |
| C49U U81A C89A | -4.05 |
| G51A C73G C124U | -1.14 |
| G48U G61U C88U G110A | -1.73 |
| G51A G60A C124G | -1.16 |
| C49U G69U A121C | 1.51 |
| C49A G61U U81C G128U | -4.52 |
| C49G U55G U129A | -1.82 |
| G48U C88U | -1.36 |
| G48U C88A | -0.373 |
| A50C C82U G117U | -2.93 |
| C49A U81C | -2.67 |
| A50G C79A U96C | -2.32 |
| C49A C82A G110A | -1.04 |
| C49G G60C A119U U133A | -2.93 |
